Data reported in patent US20170145113A1 (Genentech, published 2017).
Residue numbers refer to the chain shown, from its start. Numbers in names are those of the source. Each block holds one binder with its values, some of them ahead of it.

Assays:
[1] = target: T1, His-tagged human HtrA1 protease domain (human, UniProt Q92743 161-367); experiment: BIACORE SPR, Fab analyte, Human HtrA1-PD (N=2)
T1 construct: His-tagged protease domain; also called huHtrA1-PD-His; huHtrA1-PD

[2] = target: T1, His-tagged human HtrA1 protease domain; experiment: BIACORE SPR, single-cycle kinetics; Fab analyte over captured human HtrA1
[3] = target: T1, His-tagged human HtrA1 protease domain; experiment: SPR (BIACORE), Fab
[4] = target: T2, His-tagged recombinant murine HtrA1 protease domain (murine, UniProt Q9R118 156-367); experiment: phage competition ELISA (Fab on phage, HtrA1 in solution)
T2 construct: His-tagged protease domain; also called muHtrA1-PD-His; muHtrA1-PD
Description: (§1) MAXISORP™ microliter plates were coated with human HtrA1-PD-His at 2 μg/ml in PBS for 2 h and then blocked with PBST buffer (0.5% BSA and 0.05% TWEEN®20 in PBS) for 1 h at room temperature. Phage purified from culture supernatants were incubated with serially-diluted human or murine HtrA1 in PBST buffer in a tissue-culture microtiter plate for 1 h, after which 80 μl of the mixture was transferred to human HtrA1-coated wells for 15 min to capture unbound phage. The plate was washed with PBT buffer (0.05% TWEEN®20 in PBS), and HRP-conjugated anti-M13 antibody (Amersham Pharmacia Biotech) was added (1:5000 in PBST buffer) for 40 min. The plate was washed with PBT buffer and developed by adding tetramethylbenzidine substrate (Kirkegaard and Perry Laboratories, Gaithersburg, Md.). The absorbance at 450 nm was plotted as a function of target concentration in solution to determine phage IC50.

[5] = target: T1, His-tagged human HtrA1 protease domain; experiment: as above
Description: as §1

[6] = target: T2, His-tagged recombinant murine HtrA1 …; experiment: SPR (BIACORE), Fab
Excerpt: (§2) To address W91 oxidation in HVR-L3, 2 variants (LC-W91Y and LC-W91L) were generated and produced as Fabs for BIACORE™ SPR binding analysis.
(§3) To determine the binding affinity of anti-HtrA1 Fabs by single-cycle kinetics, (SPR) measurement with a BIACORE™ T100 instrument was used. Briefly, a series S sensor chip CM5 was activated with 1-ethyl-3-(3-dimethylamino-propyl)carbodiimide hydrochloride (EDC) and N-hydroxysuccinimide (NHS) reagents according to the supplier's instructions, and streptavidin (Pierce) was coupled to achieve approximately 2500 response units (RU), followed by blocking un-reacted groups with 1 M ethanolamine.
(§4) For kinetics measurements, biotinylated human or murine HtrA1-PD-His was first injected at 10 μl/min flow rate to capture approximately 150 RU at 3 different flow cells (FC), except for FC1 (which served as a reference), and then 5-fold serial dilutions of anti-HtrA1 Fab in HBS-P buffer (0.01M HEPES pH 7.4, 0.15 M NaCl, 0.005% surfactant P20) from low (0.48 nM) to high (300 nM) were injected (flow rate: 30 μl/min) one after the other in the same cycle with no regeneration between injections. The sensorgram was recorded and subject to reference and buffer subtraction before evaluating by BIACORE™ T100 Evaluation Software (version 2.0). Association rates (kₒₙ) and dissociation rates (koff) were calculated using a simple one-to-one Langmuir binding model. The equilibrium dissociation constant (KD) was calculated as the ratio koff/kₒₙ.

[7] = target: T1, His-tagged human HtrA1 protease domain; experiment: SPR (BIACORE), Fab; remark: listed apart in the source
Excerpt: as §2, §3, §4

[8] = target: T1, His-tagged human HtrA1 protease domain; experiment: cell-based or functional assay
[9] = target: T1, His-tagged human HtrA1 protease domain; experiment: BIACORE T200 SPR; Fab analyte over huHtrA1-PD-His captured by anti-His antibody
Description: (§5) To determine the binding affinity of selected Fab variants for HtrA1, SPR measurement with a BIACORE™ T200 instrument was performed. Briefly, a series S sensor chip CM5 was activated with 1-EDC and NHS reagents according to the supplier's instructions, and anti-His antibody was coupled to achieve 200-300 response units (RU), then following by blocking un-reacted groups with 1 M ethanolamine. For kinetics measurements, approximately 5 nM of huHtrA1-PD-His was first injected at 10 μl/min flow rate to capture approximately 100 RU at 2 different flow cells (FC), except for FC1 (which served as a reference). Next, 5-fold serial dilutions of Fab in HBS-P buffer (0.01M HEPES pH 7.4, 0.15M NaCl, 0.005% surfactant P20) from low (0.8 nM) to high (50 nM) were injected (flow rate: 30 μl/min). The binding responses on HtrA1 were corrected by subtracting of RU from a blank flow cell. The sensorgram was recorded and subject to reference and buffer subtraction before evaluating by BIACORE® T200 Evaluation Software (version 2.0). Association rates (kₒₙ) and dissociation rates (koff) were calculated using a simple one-to-one Langmuir binding model. The equilibrium dissociation constant (KD) was calculated as the ratio of koff/kₒₙ.

[10] = target: T1, His-tagged human HtrA1 protease domain; experiment: BIACORE SPR analysis, Fab format
Description: as §5

[11] = target: T2, His-tagged recombinant murine HtrA1 …; experiment: SPR (BIACORE T100), single-cycle kinetics; biotinylated HtrA1-PD-His on streptavidin, Fab injected
Excerpt: as §3, §4

[12] = target: T1, His-tagged human HtrA1 protease domain; experiment: as above
Excerpt: as §3, §4

T1 sequence (Q92743 other isoform, or with tags, fused parts or gaps limits assumed): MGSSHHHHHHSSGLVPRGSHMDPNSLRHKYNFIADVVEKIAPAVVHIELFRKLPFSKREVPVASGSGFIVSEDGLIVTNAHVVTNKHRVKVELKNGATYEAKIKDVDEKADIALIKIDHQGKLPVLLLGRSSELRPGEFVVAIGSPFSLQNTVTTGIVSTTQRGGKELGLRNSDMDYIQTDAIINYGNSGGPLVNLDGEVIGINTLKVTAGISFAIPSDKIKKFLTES

Kd [1]: 0.4 nM | koff [1]: 0.00018 s⁻¹ | kon [1]: 450000 M⁻¹ s⁻¹
B1: EP_EG (Fab, V domains shown)
VH: EVQLVQSGAEVKKPGASVKVSCKASGYTFTDSEMHWVRQAPGQGLEWIGGVDPETEGAAYNQKFKGRATITRDTSTSTAYLELSSLRSEDTAVYYCTRGYDYDYALDYWGQGTLVTVSS
VL: DIQMTQSPSSLSASVGDRVTITCRASSSVNFIHWYQQKPGKAPKPLISATSNLASGVPSRFSGSGSGTDFTLTISSLQPEDFATYYCQQWSSEPWTFGQGTKVEIK
notes: also called h15H6.v2 LC-N94E LC-P95 HC-D55E HC-G56 Fab; copies: 1 + 1

Kd [2]: 0.52 nM | koff [2]: 0.00025 s⁻¹ | kon [2]: 480000 M⁻¹ s⁻¹ | fold reduction in binding affinity against h15H6.v2 [3]: ~2 fold
B2: h15H6.v2 LC-N94S LC-P95 Fab (Fab, V domains shown)
VH: B1 VH with E56D
VL: B1 VL with E93S
notes: Produced as Fab; also called SP

Kd [1]: 0.8 nM | koff [1]: 0.00029 s⁻¹ | kon [1]: 380000 M⁻¹ s⁻¹
B3: QP_EG (Fab, V domains shown)
VH: B1 VH
VL: B1 VL with E93Q
notes: also called h15H6.v2 LC-N94Q LC-P95 HC-D55E HC-G56 Fab; copies: 1 + 1

Kd [1]: 0.8 nM | koff [1]: 0.00029 s⁻¹ | kon [1]: 350000 M⁻¹ s⁻¹
B4: SP_EG (Fab, V domains shown)
VH: B1 VH
VL: B1 VL with E93S
notes: also called h15H6.v2 LC-N94S LC-P95 HC-D55E HC-G56 Fab; copies: 1 + 1

binding result [4]: binds | binding result [5]: binds
B5: h15H6.v1 LC-W47L variant (Fab, V domains shown)
VH: B1 VH with E56D, I70L, R72A
VL: B1 VL with E93N
notes: its VL equals the VL of h15H6.v2, which carries LC-W47L as its only light chain change

binding result [4]: binds | binding result [5]: binds
B6: h15H6.v1 HC-A71R variant (Fab, V domains shown)
VH: B1 VH with E56D, I70L
VL: B1 VL with L46W, E93N
notes: built as h15H6.v1

Kd [2]: 0.52 nM | koff [2]: 0.00029 s⁻¹ | kon [2]: 560000 M⁻¹ s⁻¹ | fold reduction in binding affinity against h15H6.v2 [3]: ~2 fold
B7: h15H6.v2 LC-N94Q LC-P95 Fab (Fab, V domains shown)
VH: B1 VH with E56D
VL: B1 VL with E93Q
notes: Produced as Fab; also called QP

Kd [6]: 7.6 nM | koff [6]: 0.00091 s⁻¹ | kon [6]: 120000 M⁻¹ s⁻¹ | Kd [7]: 10.7 nM | koff [7]: 0.0016 s⁻¹ | kon [7]: 150000 M⁻¹ s⁻¹
B8: h15H6.v2 LC-W91L Fab (Fab, V domains shown)
VH: B1 VH with E56D
VL: B1 VL with W90L, E93N
notes: Produced as Fab

binding result [4]: binds | binding result [5]: binds
B9: h15H6.v1 HC-L69I variant (Fab, V domains shown)
VH: B1 VH with E56D, R72A
VL: B1 VL with L46W, E93N
notes: built as h15H6.v1

IC50 FRET (H2-Opt substrate cleavage) [8]: 0.41 nM | IC90 FRET (H2-Opt substrate cleavage) [8]: 2.77 nM | Max inhibition (FRET H2-Opt assay) [8]: 77 | Kd [9]: 0.546 nM | koff [9]: 0.000172 s⁻¹ | kon [9]: 315000 M⁻¹ s⁻¹ | Kd [1]: 0.6 nM | koff [1]: 0.00021 s⁻¹ | kon [1]: 350000 M⁻¹ s⁻¹ | Kd [10]: 0.546 nM | koff [10]: 0.000172 s⁻¹ | kon [10]: 315000 M⁻¹ s⁻¹
B10: h15H6.v2.APEG Fab (Fab, name in Kabat numbering, V domains shown)
VH: B1 VH
VL: B1 VL with E93A
notes: also called h15H6.v3; LC-N94A LC-P95 HC-D55E HC-G56

Kd [6]: 7.1 nM | koff [6]: 0.0017 s⁻¹ | kon [6]: 240000 M⁻¹ s⁻¹ | Kd [7]: 11.2 nM | koff [7]: 0.0037 s⁻¹ | kon [7]: 330000 M⁻¹ s⁻¹
B11: h15H6.v2 LC-W91Y Fab (Fab, V domains shown)
VH: B1 VH with E56D
VL: B1 VL with W90Y, E93N
notes: Produced as Fab

fold reduction of binding against h15H6.v1 [4]: ~10 fold | fold reduction of binding against h15H6.v1 [5]: ~10 fold
B12: h15H6.v1 LC-S49Y variant (Fab, V domains shown)
VH: B1 VH with E56D, I70L, R72A
VL: B1 VL with L46W, S48Y, E93N
notes: built as h15H6.v1

binding result [5]: binds
B13: h15H6.v1 HC-A67V variant (Fab, V domains shown)
VH: B1 VH with E56D, A68V, I70L, R72A
VL: B1 VL with L46W, E93N
notes: built as h15H6.v1

binding result [5]: binds
B14: h15H6.v1 HC-T93A variant (Fab, V domains shown)
VH: B1 VH with E56D, I70L, R72A, T97A
VL: B1 VL with L46W, E93N
notes: built as h15H6.v1

Kd [11]: 6.43 nM | koff [11]: 0.00117 s⁻¹ | kon [11]: 182000 M⁻¹ s⁻¹ | Kd [12]: 23.8 nM | koff [12]: 0.00228 s⁻¹ | kon [12]: 96000 M⁻¹ s⁻¹
B15: m19B12 Fab (Fab, V domains shown)
VH: EVKLVESGGGLVEPGGSLKLACVASGFTFSSYIMSWVRQTPEKRLEWVAYISNGGGTTYYSDTIKGRFTISRDNAKNTLYLQMSTLKSEDTAIYFCARQNFRSDGSSMDYWGQGTAVTVSS
VL: NIVVTQSPASLAVSLGQRATISCRASESVDSYGKSFMHWYQQKPGQPPKLLIYLASKLESGVPARFSGSGSRTDFTLTIDPVEADDAATYYCQQNNEDPYTFGGGTKLEIK
notes: Tested in Fab format

Kd [11]: 0.3 nM | koff [11]: 0.000163 s⁻¹ | kon [11]: 539000 M⁻¹ s⁻¹ | Kd [12]: 0.31 nM | koff [12]: 0.000155 s⁻¹ | kon [12]: 506000 M⁻¹ s⁻¹
B16: m15H6 Fab (Fab, V domains shown)
VH: QVQLQQSGAELVRPGASVTLSCKASGYTFTDSEMHWVKQTPVHGLEWIGGVDPETDGAAYNQKFKGKATLTADKSSSTAYMELRSLTSEDSAVYYCTRGYDYDYALDYWGQGTSVTVSS
VL: QIVLSQSPAILSASPGEKVTMTCRASSSVNFIHWYQQKPGSSPKPWISATSNLASGVPPRFSGSGSGTSYSLTISRVEAEDAATYYCQQWSSNPWTFGGGTKLEIK
notes: Tested as Fab; also called ml5H6 Fab; m15H6 in Fab format
